The values that follow come from patent US20120010151A1.

Where no end group is shown, it is not given here. The star is where a group is joined. Boc = CC(C)(C)OC(=O)*

This test deals with Wnt-5a receptors (on A2058 melanoma cells). Description: cell-based or functional assay.

In turn, Boc-MDGCEL [Box5 (Wnt-5a-derived N-butyloxycarbonyl hexapeptide Met-Asp-Gly-Cys-Glu-Leu)] displayed an inhibition of the Wnt-5a-induced Ca2+ signal (fura-2, A2058 melanoma cells, 100 uM Box5, 0.1 ug/ml Wnt-5a) above 70%.
